The target in the assay is T1, B7-H3 on LAN-1 cells (human) (UniProt Q5ZPR3).
T1 sequence (looked up): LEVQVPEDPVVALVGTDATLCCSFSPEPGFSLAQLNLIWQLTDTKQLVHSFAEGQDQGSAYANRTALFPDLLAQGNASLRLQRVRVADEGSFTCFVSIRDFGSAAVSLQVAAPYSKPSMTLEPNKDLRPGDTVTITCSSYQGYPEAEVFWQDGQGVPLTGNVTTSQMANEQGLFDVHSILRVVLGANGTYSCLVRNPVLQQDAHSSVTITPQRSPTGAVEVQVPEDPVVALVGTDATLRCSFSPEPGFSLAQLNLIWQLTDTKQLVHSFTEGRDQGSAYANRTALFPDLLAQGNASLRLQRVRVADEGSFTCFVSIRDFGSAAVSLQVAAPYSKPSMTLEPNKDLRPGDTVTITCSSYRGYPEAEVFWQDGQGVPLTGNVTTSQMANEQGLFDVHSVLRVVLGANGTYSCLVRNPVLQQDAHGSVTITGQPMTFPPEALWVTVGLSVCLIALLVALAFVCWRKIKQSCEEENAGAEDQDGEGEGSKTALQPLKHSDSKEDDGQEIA
The assay is described as follows: flow cytometry wash-off on LAN-1 cells, FITC-labeled goat anti-mouse second antibody.

B1: 8H9 (antibody, INN chains, looked up, mouse IgG1, V domains shown)
VH: QVQLQQSGAELVKPGASVKLSCKASGYTFTNYDINWVRQRPEQGLEWIGWIFPGDGSTQYNEKFKGKATLTTDTSSSTAYMQLSRLTSEDSAVYFCARQTTATWFAYWGQGTLVTVSA
VL: DIVMTQSPATLSVTPGDRVSLSCRASQSISDYLHWYQQKSHESPRLLIKYASQSISGIPSRFSGSGSGSDFTLSINSVEPEDVGVYYCQNGHSFPLTFGAGTKLELK
B1 yielded a retention on cells after 10 washes (MFI as percent of the baseline after first wash) of 80%.

The values are drawn from patent publication US20170253660A1.
